From publication PMC5595370 come the findings set out here.

The target of test [1] is HPV59 L1 C175S mutant after limited trypsin digestion (crystallized pentamer) (human papillomavirus type 59). The test can be described thus: AUC.
For test [2] the target is unchanged. Briefly: crystal structure.

A word on the stoichiometry N: it is a count of units in the complex or per binding partner.

“HPV59 L1 C175S mutant after limited trypsin digestion (crystallized pentamer) (domain or fragment)”: the stoichiometry N in test [1] and in test [2] was 5 throughout.
